Reference: US20230192897A1 (NUMAB THERAPEUTICS, published 2023)
Where a chain is given by its changes, count along the chain named.

B1: PRO1431 (other)
chain: DIQMTQSPSSLSASVGDRVTITCQASQSINDYLAWYQQKPGKAPKLLIYKASTLASGVPSRFSGSGSGTDFTLTISSLQPEDFATYYCQQGYIITDIDNVFGTGTKVTVLGGGGGSEVQLVESGGGLVQPGGSLRLSCAASGFSFSNSYWICWVRQAPGKCLEWIGCTFVGSSDSTYYANWAKGRFTISRDNSKNTVYLQMNSLRAEDTAVYYCARHPSDAVYGYANNLWGQGTLVTVSSGGGGSGGGGSGGGGSGGGGSIQMTQSPSSLSASVGDRVTITCQASQSINNVLAWYQQKPGKAPKLLIYRASTLASGVPSRFSGSGSGTDFTLTISSLQPEDFATYYCQSSYGNYGDFGCGTKVTVLGGGGGSQVQLQESGPGLVKPSETLSLTCKASGFSFSSGYDMCWVRQPPGKGLEWIACVVAGSVDITYYASWAKGRVTISKDSSKNQVSLKLSSVTAADTAVYYCARKDAYSDAFNLWGQGTLVTVSSGGGGSGGGGSIQMTQSPSSLSASVGDRVTITCQSSESVYSNNQLSWYQQKPGQPPKLLIYDASDLASGVPSRFSGSGSGTDFTLTISSLQPEDFATYYCAGGFSSSSDTAFGGGTKLTVLGGGGGSGGGGSGGGGSGGGGSEVQLVESGGGLVQPGGSLRLSCAASGFSLSSNAMGWVRQAPGKGLEYIGIISVGGFTYYASWAKGRFTISRDNSKNTVYLQMNSLRAEDTATYFCARDRHGGDSSGAFYLWGQGTLVTVSS
notes: trispecific scDb-scFv; also called 38-02-A04 sc13 scDb-i/33-03-G02 sc18 scDb-o/19-01-H04 sc03 scFv
B2: PRO1473 (other)
chain: B1 chain with I2F, M4L, A43S, V374S, Y469F
notes: trispecific scDb-scFv; also called 38-02-A04 sc13 scDb-i/33-03-G02 sc03 scDb-o/19-01-H04 sc03 scFv
B3: PRO1476 (other)
chain: DIQMTQSPSSLSASVGDRVTITCQASQSINNVLAWYQQKPGKAPKLLIYRASTLASGVPSRFSGSGSGTDFTLTISSLQPEDFATYYCQSSYGNYGDFGCGTKVTVLGGGGGSQSQLQESGPGLVKPSETLSLTCKASGFSFSSGYDMCWVRQPPGKGLEWIACVVAGSVDITYYASWAKGRVTISKDSSKNQVSLKLSSVTAADTAVYFCARKDAYSDAFNLWGQGTLVTVSSGGGGSGGGGSGGGGSGGGGSFQLTQSPSSLSASVGDRVTITCQASQSINDYLAWYQQKPGKSPKLLIYKASTLASGVPSRFSGSGSGTDFTLTISSLQPEDFATYYCQQGYIITDIDNVFGTGTKVTVLGGGGGSEVQLVESGGGLVQPGGSLRLSCAASGFSFSNSYWICWVRQAPGKCLEWIGCTFVGSSDSTYYANWAKGRFTISRDNSKNTVYLQMNSLRAEDTAVYYCARHPSDAVYGYANNLWGQGTLVTVSSGGGGSGGGGSIQMTQSPSSLSASVGDRVTITCQSSESVYSNNQLSWYQQKPGQPPKLLIYDASDLASGVPSRFSGSGSGTDFTLTISSLQPEDFATYYCAGGFSSSSDTAFGGGTKLTVLGGGGGSGGGGSGGGGSGGGGSEVQLVESGGGLVQPGGSLRLSCAASGFSLSSNAMGWVRQAPGKGLEYIGIISVGGFTYYASWAKGRFTISRDNSKNTVYLQMNSLRAEDTATYFCARDRHGGDSSGAFYLWGQGTLVTVSS
notes: trispecific scDb-scFv; also called 33-03-G02 sc03 scDb-i/38-02-A04 sc13 scDb-o/19-01-H04 sc03 scFv

Legend:
Fc tagged human PDL1 = target: T1, Fc tagged human PDL1 (human, UniProt Q9NZQ7 19-239); assay: SPR
T1 construct: Bought (Sino Biological, cat. 10084-H02H); captured on the SPR chip; also called PDL1-Fc chimeric protein
Protocol: (§1) Affinity to PDL1 of the different species was determined by SPR measurements using a Biacore T200 device (GE Healthcare). An antibody specific for the Fc region of human IgGs was immobilized on a sensor chip (CM5 sensor chip, GE Healthcare) by amine-coupling. For all formats, with the exception of the Fc containing Morrison formats, PDL1-Fc chimeric protein from different species were captured by the immobilized antibody.
(§2) Three-fold serial dilutions of the molecules specific for PDL1 (0.12-90 nM) were injected into the flow cells for three minutes and dissociation was monitored for 10 minutes. After each injection cycle, surfaces were regenerated with one injection of a 3 M MgCl₂ solution. The apparent dissociation (kd) and association (kₐ) rate constants and the apparent dissociation equilibrium constant (KD) were calculated using one-to-one Langmuir binding model. Affinity to CD137 of the different species was determined using the identical setup as for PDL1 with the exception that CD137-Fc chimeric protein from different species were captured by the immobilized antibody.

Fc tagged human CD137 = target: T2, Fc tagged human CD137 (human, UniProt Q07011 24-186); assay: SPR
T2 construct: also called CD137-Fc chimeric protein
Protocol: as §1, §2

human PDL1 on cells = human PDL1 on cells (human, UniProt Q9NZQ7 19-290); assay: cell-based or functional assay
[1] = target: T3, CD137 on Jurkat NFkB reporter cells (human, UniProt Q07011 24-255); assay: cell-based or functional assay
biotinylated human PDL1 [2] = target: T4, biotinylated human PDL1 (human, UniProt Q9NZQ7 19-238, limits assumed, biotinylated); assay: competition ELISA PD-1/PDL1
T4 construct: also called biotinylated PDL1
Protocol: (§3) Plates were blocked for 1 hour at room temperature by adding 300 μl of PBS with i%BSA and 0.2% tween (dilution buffer) to each well. Inhibitors were serially diluted in 3-fold steps to final concentrations ranging from 300 to 0.005 ng/ml in dilution buffer containing 1 ng/ml biotinylated human PDL1. The mixtures were pre-incubated for 1 hour at room temperature under gentle agitation on a rotating mixer (21 rpm) and added to the microplates after 3 wash cycles with 450 μl wash buffer per well. Plates were incubated for 1.5 hours at room temperature under gentle agitation, then 10 ng/ml streptavidin-polyHRP40 was added to each microplate well after three washes with 450 μl of wash buffer per well. After 1 h incubation at RT, plates were washed three times with 450 μl wash buffer and TMB substrate solution was added. The enzymatic reaction was stopped after 6 minutes by addition of 1 M HCl and absorbance was measured at 450 nm using 690 nm as a reference wavelength. For calculation of IC₅₀ values, a four-parameter logistic (4PL) curve fit was performed in Graph Pad Prism using reference subtracted values.

[3] = target: T3, CD137 on Jurkat NFkB reporter cells; assay: cell-based or functional assay; remark: listed apart in the source
biotinylated human PDL1 [4] = target: T4, biotinylated human PDL1; assay: competition ELISA B7.1/PDL1
Protocol: as §3, with “1% BSA” for “i%BSA”, “Inhibitors were serially diluted in 3-fold steps to final concentrations ranging from 300 to 0.005 ng/ml in dilution buffer containing 1 ng/ml biotinylated human PDL1.” left out

| Binder | koff (Fc tagged human PDL1) [s⁻¹] | Kd (Fc tagged human CD137) [nM] | koff (Fc tagged human CD137) [s⁻¹] | kon (Fc tagged human CD137) [M⁻¹ s⁻¹] | IC50 (ng/ml), NF-AT potency assay, +HSA (human PDL1 on cells) [ng/mL] | rel. IC50 (avelumab/test), +HSA (human PDL1 on cells) [fold] | IC50 (ng/ml) (EC50 in Table 16C), NFkB reporter, HCC827 + IFNg, 24 h, +HSA [1] [ng/mL] | rel. IC50 (PRO1186/test), 24 h [1] [fold] | IC50 (biotinylated human PDL1 [2]) [ng/mL] | rel. IC50 (IC50 avelumab/IC50 test) (biotinylated human PDL1 [2]) [fold] | Area under the curve (calculated using PRO885 normalized data), first line (6 h by the order of the upper part) [3] | Area under the curve (calculated using PRO885 normalized data), second line (24 h by the order of the upper part) [3] | EC50 [ng/ml], NF-kB reporter, HCC827 + IFNg, +HSA, 6 h [3] [ng/mL] | IC10/EC90 ratio, first line (6 h by the order of the upper part) [3] | IC10/EC90 ratio, second line (24 h by the order of the upper part) [3] | Maximum NF-kB activation (rel. to PRO1186) [%], first line (6 h by the order of the upper part) [3] [%] | Maximum NF-kB activation (rel. to PRO1186) [%], second line (24 h by the order of the upper part) [3] [%] | rel. Area under the curve (AUCsample/AUCPRO1186), first line (6 h by the order of the upper part) [3] [fold] | rel. Area under the curve (AUCsample/AUCPRO1186), second line (24 h by the order of the upper part) [3] [fold] | rel. EC50 (EC50, PRO1186/EC50, sample), NF-kB reporter, 6 h [3] [fold] | also measured |
| --- | --- | --- | --- | --- | --- | --- | --- | --- | --- | --- | --- | --- | --- | --- | --- | --- | --- | --- | --- | --- | --- |
| B1 | 4.5e-05 | 1.7 | 0.00075 | 450000 | 9.83 | 3.73 | 18.4 | 1.02 | 2.75 | 0.51 | 83.2 | 119 | 21 | 5.03 | 16.1 | 55.3 | 68.6 | 0.4 | 0.54 | 0.68 | rel. EC50 (EC50, PRO1186/EC50, sample), NF-kB reporter, 24 h [3]: 1.02 fold; rel. IC10/EC90 (ratio of sample/ratio of PRO1186), first line (6 h by the order of the upper part) [3]: 0.3 fold; rel. IC10/EC90 (ratio of sample/ratio of PRO1186), second line (24 h by the order of the upper part) [3]: 1.74 fold; IC50 (biotinylated human PDL1 [4]): 3.31 ng/mL; rel. IC50 (IC50 avelumab/IC50 test) (biotinylated human PDL1 [4]): 0.84 fold |
| B2 | 2.9e-05 | 2 | 0.0006 | 310000 | 35.2 | 1.11 | 0.91 | 3.55 | 4.14 | 0.56 | 52.3 | 188 | 2.4 | 53.9 | 15.7 | 36.2 | 67.4 | 0.31 | 0.73 | 2.3 | Kd (Fc tagged human PDL1): 0.0082 nM; kon (Fc tagged human PDL1): 3.6e+06 M⁻¹ s⁻¹; rel. EC50 (EC50, PRO1186/EC50, sample), NF-kB reporter, 24 h [3]: 3.55 fold; rel. IC10/EC90 (ratio of sample/ratio of PRO1186), first line (6 h by the order of the upper part) [3]: 1.01 fold; rel. IC10/EC90 (ratio of sample/ratio of PRO1186), second line (24 h by the order of the upper part) [3]: 0.12 fold; IC50 (biotinylated human PDL1 [4]): 8.89 ng/mL; rel. IC50 (IC50 avelumab/IC50 test) (biotinylated human PDL1 [4]): 1.49 fold |
| B3 | 3.1e-05 | 1.1 | 0.00037 | 350000 | 53.5 | 0.66 | 3.9 | 1.83 | 2.84 | 0.8 | 93.5 | 135 | 5.97 | 34.2 | 35.7 | 36.4 | 76.1 | 0.39 | 0.59 | 2.02 | Kd (Fc tagged human PDL1): 0.009 nM; rel. EC50 (EC50, PRO1186/EC50, sample), NF-kB reporter, 24 h [3]: 1.83 fold; rel. IC10/EC90 (ratio of sample/ratio of PRO1186), first line (6 h by the order of the upper part) [3]: 2.66 fold; rel. IC10/EC90 (ratio of sample/ratio of PRO1186), second line (24 h by the order of the upper part) [3]: 1.63 fold; IC50 (biotinylated human PDL1 [4]): 9.49 ng/mL; rel. IC50 (IC50 avelumab/IC50 test) (biotinylated human PDL1 [4]): 1.1 fold |
